Consider 1 molecule from paper PMC12637021, “Talin–tensin3 interactions regulate fibrillar adhesion formation and tensin3 phase separation” (The Journal of Cell Biology, 2025).

For assay [1], the system named is NIH3T3 cells. Put plainly: condensates on soft vs stiff PDMS, NIH3T3 cells. It is filed as cell-based, mouse. The note with it: 1.5 kPa vs 28 kPa FN-coated PDMS, overnight. How it is done:
Imaging dishes equipped with 40 µm-thick PDMS substrates (1.5 and 28 kPa) were purchased from ibidi. PDMS dishes were coated with 30 μg/ml FN for 1 h, followed by three washes with PBS. Dishes were incubated with DMEM for 10 min to equilibrate before cells were plated and incubated overnight at 37°C.
To establish a correlation between tensin3 expression and condensation formation, a maximum intensity Z-projection was performed on Z-stack images of NIH3T3 cells (step depth 0.2 μm). The integrated fluorescence intensity was measured by normalizing the mean pixel intensity of each cell to the average of all values in cells expressing mCh-TNS3. To measure the condensate coverage in NIH3T3 cells, the images were background-subtracted (rolling ball) and then thresholded. This was followed by the Analyse Particles function in FIJI/ImageJ to select round condensate structures (circularity 0.7–1.0) ([Bussi et al., 2023]; [Dumelie et al., 2024]) with a size larger than 0.1 μm^2. The same settings were applied to quantify the number of condensates in NIH3T3 and HFF cells.

The subject of assay [2] is U2OS TNS3KO cells. Briefly: α5 integrin-positive FBs, rescue of TNS3KO cells. It is filed as cell-based, human. The conditions noted are these: vs mCh-TNS3-WT; FN-coated, overnight; SNAKA51 antibody; n = 37 (WT) and 47 (L702E) cells. How it is done:
(§1) Cells were fixed in 4% paraformaldehyde (PFA, Sigma-Aldrich), which had been prewarmed to 37°C for 15 min before being washed three times with PBS. For immunofluorescence staining, cells were permeabilized with 0.5% Triton X-100 (Sigma-Aldrich) at room temperature for 5 min before being washed three times with PBS. Blebbistatin (Tocris Bioscience) was diluted in dimethyl sulfoxide (Sigma-Aldrich) and used at a final concentration of 50 μM. […]
(§2) Analysis of cell adhesion sites, FN fibrils, and LLPS condensates was performed using FIJI/ImageJ (version 1.54f) software ([Schindelin et al., 2012]). […] Prior to adhesion quantification, the images were background-subtracted using a rolling ball algorithm, followed by thresholding of adhesion sites and Analyse Particles functions in FIJI/ImageJ to quantify adhesions. Adhesion sites with sizes between 0.4 and 10 μm^2 were counted, except for adhesions in blebbistatin-treated cells, which were counted with sizes between 0.2 and 4 μm^2. […]

For assay [3], the system named is U2OS TNS3KO cells. Briefly: vinculin-positive FAs on VN. It is filed as cell-based, human. The conditions noted are these: TNS3-WT vs TNS3-L702E; VN-coated, serum-free; n = 74 (WT) and 51 (L702E) cells. How it is done: as §1, §2
The subject of assay [4] is NIH3T3 cells. Briefly: FRAP of GFP-TNS3 in adhesions. The assay is classed as cell-based, mouse. The note with it: vs TNS3-WT; 37°C; n = 27 (WT) and 26 (L702E) adhesions. How it is done:
Transfected NIH3T3 cells were incubated in prewarmed DMEM medium at 37°C for 1 h to equilibrate prior to imaging. FRAP experiments were performed using a spinning disk confocal microscope as described above. Slidebook software (version 6.0.3, 3I) was used to set up the experiment. Regions of interest (ROIs) were manually adjusted to the shape of adhesion. A 488-nm laser was used at 100% power to bleach one to three adhesion ROIs per cell. Three prebleach images were acquired, followed by one image every 10 s for 3 min after bleach. Time-lapse images were analyzed using FIJI/ImageJ software ([Schindelin et al., 2012]) to obtain the intensity values of three control unbleached control ROIs and bleached ROIs over time. Values were background-subtracted, and measurements were corrected with the control values of the unbleached ROIs to compensate for any overall fluorescence loss. Intensity values were then normalized to the first postbleach value; normalized data were fitted to a one-phase association model Y=Y0+(Plateau-Y0)*(1-exp(-K*x)) using GraphPad Prism 10 software. Coefficients of the curve fit were extracted and transformed to generate the mobile fraction and halftime of recovery.

The subject of assay [5] is active β1 integrin, U2OS TNS3KO cells. Put plainly: β1 integrin-positive adhesions, U2OS TNS3KO cells. It is filed as cell-based, human. The note with it: vs TNS3-WT; FN-coated; 9EG7. The protocol:
as §1, §2

B1: TNS3-L702E: tensin3 carrying the L702E point mutation that blocks the interaction with talin (protein, UniProt Q68CZ2 1-1445, looked up, variant L702E)
Tensin-3: MEEGHGLDLTYITERIIAVSFPAGCSEESYLHNLQEVTRMLKSKHGDNYLVLNLSEKRYDLTKLNPKIMDVGWPELHAPPLDKMCTICKAQESWLNSNLQHVVVIHCRGGKGRIGVVISSYMHFTNVSASADQALDRFAMKKFYDDKVSALMQPSQKRYVQFLSGLLSGSVKMNASPLFLHFVILHGTPNFDTGGVCRPFLKLYQAMQPVYTSGIYNVGPENPSRICIVIEPAQLLKGDVMVKCYHKKYRSATRDVIFRLQFHTGAVQGYGLVFGKEDLDNASKDDRFPDYGKVELVFSATPEKIQGSEHLYNDHGVIVDYNTTDPLIRWDSYENLSADGEVLHTQGPVDGSLYAKVRKKSSSDPGIPGGPQAIPATNSPDHSDHTLSVSSDSGHSTASARTDKTEERLAPGTRRGLSAQEKAELDQLLSGFGLEDPGSSLKEMTDARSKYSGTRHVVPAQVHVNGDAALKDRETDILDDEMPHHDLHSVDSLGTLSSSEGPQSAHLGPFTCHKSSQNSLLSDGFGSNVGEDPQGTLVPDLGLGMDGPYERERTFGSREPKQPQPLLRKPSVSAQMQAYGQSSYSTQTWVRQQQMVVAHQYSFAPDGEARLVSRCPADNPGLVQAQPRVPLTPTRGTSSRVAVQRGVGSGPHPPDTQQPSPSKAFKPRFPGDQVVNGAGPELSTGPSPGSPTLDIDQSIEQENRLILELDPTFEPIPTHMNALGSQANGSVSPDSVGGGLRASSRLPDTGEGPSRATGRQGSSAEQPLGGRLRKLSLGQYDNDAGGQLPFSKCAWGKAGVDYAPNLPPFPSPADVKETMTPGYPQDLDIIDGRILSSKESMCSTPAFPVSPETPYVKTALRHPPFSPPEPPLSSPASQHKGGREPRSCPETLTHAVGMSESPIGPKSTMLRADASSTPSFQQAFASSCTISSNGPGQRRESSSSAERQWVESSPKPMVSLLGSGRPTGSPLSAEFSGTRKDSPVLSCFPPSELQAPFHSHELSLAEPPDSLAPPSSQAFLGFGTAPVGSGLPPEEDLGALLANSHGASPTPSIPLTATGAADNGFLSHNFLTVAPGHSSHHSPGLQGQGVTLPGQPPLPEKKRASEGDRSLGSVSPSSSGFSSPHSGSTISIPFPNVLPDFSKASEAASPLPDSPGDKLVIVKFVQDTSKFWYKADISREQAIAMLKDKEPGSFIVRDSHSFRGAYGLAMKVATPPPSVLQLNKKAGDLANELVRHFLIECTPKGVRLKGCSNEPYFGSLTALVCQHSITPLALPCKLLIPERDPLEEIAESSPQTAANSAAELLKQGAACNVWYLNSVEMESLTGHQAIQKALSITLVQEPPPVSTVVHFKVSAQGITLTDNQRKLFFRRHYPVNSVIFCALDPQDRKWIKDGPSSKVFGFVARKQGSATDNVCHLFAEHDPEQPASAIVNFVSKVMIGSPKKV
modifications: mCherry or GFP tag
Regarding B1, the “condensates on soft vs stiff substrate” value in assay [1] is reported as “no difference in condensate formation on soft versus stiff substrates”. In addition, the “reduction in centrally located α5 integrin-positive FBs” value in assay [2] worked out at 55%. Further, in assay [3], the “formation of vinculin-positive FA” value is on record as “no difference”. In addition, in assay [4], the “halftime of recovery (FRAP)” value is given as “significantly higher” and the “mobile fraction (FRAP)” value is on record as “significantly higher”. In addition, the “reduction of adhesion-promoting effect (β1 integrin-positive adhesions)” value in assay [5] is 57%.
